# Target: T1, focal adhesion kinase (FAK) (UniProt Q05397 2-1052)
# T1 construct: Endogenous protein in lysates of SNU449 cell lines
# Assay: physical association in SNU449 cell lysates with or without tiarellic acid (FIG. 10; method not described)
# T1 sequence (Q05397 2-1052 limits assumed): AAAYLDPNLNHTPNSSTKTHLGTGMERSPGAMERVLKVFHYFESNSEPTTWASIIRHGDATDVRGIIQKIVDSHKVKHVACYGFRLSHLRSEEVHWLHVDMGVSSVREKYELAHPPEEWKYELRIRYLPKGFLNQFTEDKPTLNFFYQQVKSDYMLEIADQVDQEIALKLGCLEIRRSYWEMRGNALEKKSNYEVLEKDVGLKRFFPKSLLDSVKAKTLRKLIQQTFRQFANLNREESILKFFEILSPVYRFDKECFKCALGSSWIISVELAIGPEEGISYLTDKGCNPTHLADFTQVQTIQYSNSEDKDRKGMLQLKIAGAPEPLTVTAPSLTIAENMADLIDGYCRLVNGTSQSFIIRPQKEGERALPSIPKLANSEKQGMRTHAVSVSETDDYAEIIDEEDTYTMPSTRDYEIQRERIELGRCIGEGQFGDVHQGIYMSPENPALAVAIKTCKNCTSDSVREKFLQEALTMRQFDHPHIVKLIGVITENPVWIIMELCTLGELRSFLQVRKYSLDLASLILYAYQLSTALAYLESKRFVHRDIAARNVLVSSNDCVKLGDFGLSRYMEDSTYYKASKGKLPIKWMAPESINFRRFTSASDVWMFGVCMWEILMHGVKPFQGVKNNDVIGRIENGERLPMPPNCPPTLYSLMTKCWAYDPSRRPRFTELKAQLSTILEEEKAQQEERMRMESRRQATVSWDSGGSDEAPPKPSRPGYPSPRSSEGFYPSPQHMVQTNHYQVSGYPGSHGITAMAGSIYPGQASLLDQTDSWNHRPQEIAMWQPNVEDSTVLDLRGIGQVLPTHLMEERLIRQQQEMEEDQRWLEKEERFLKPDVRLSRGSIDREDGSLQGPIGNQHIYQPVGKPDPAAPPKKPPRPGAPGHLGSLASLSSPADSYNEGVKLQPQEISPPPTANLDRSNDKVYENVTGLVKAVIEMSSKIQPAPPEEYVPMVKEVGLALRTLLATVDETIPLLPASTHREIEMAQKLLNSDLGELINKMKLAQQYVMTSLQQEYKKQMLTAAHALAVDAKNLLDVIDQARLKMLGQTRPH
binder,measurement,value
"p130Cas (other, UniProt P56945 1-870, looked up, Endogenous protein in lysates of SNU449 cell lines) MNHLNVLAKALYDNVAESPDELSFRKGDIMTVLEQDTQGLDGWWLCSLHGRQGIVPGNRLKILVGMYDKKPAGPGPGPPATPAQPQPGLHAPAPPASQYTPMLPNTYQPQPDSVYLVPTPSKAQQGLYQVPGPSPQFQSPPAKQTSTFSKQTPHHPFPSPATDLYQVPPGPGGPAQDIYQVPPSAGMGHDIYQVPPSMDTRSWEGTKPPAKVVVPTRVGQGYVYEAAQPEQDEYDIPRHLLAPGPQDIYDVPPVRGLLPSQYGQEVYDTPPMAVKGPNGRDPLLEVYDVPPSVEKGLPPSNHHAVYDVPPSVSKDVPDGPLLREETYDVPPAFAKAKPFDPARTPLVLAAPPPDSPPAEDVYDVPPPAPDLYDVPPGLRRPGPGTLYDVPRERVLPPEVADGGVVDSGVYAVPPPAEREAPAEGKRLSASSTGSTRSSQSASSLEVAGPGREPLELEVAVEALARLQQGVSATVAHLLDLAGSAGATGSWRSPSEPQEPLVQDLQAAVAAVQSAVHELLEFARSAVGNAAHTSDRALHAKLSRQLQKMEDVHQTLVAHGQALDAGRGGSGATLEDLDRLVACSRAVPEDAKQLASFLHGNASLLFRRTKATAPGPEGGGTLHPNPTDKTSSIQSRPLPSPPKFTSQDSPDGQYENSEGGWMEDYDYVHLQGKEEFEKTQKELLEKGSITRQGKSQLELQQLKQFERLEQEVSRPIDHDLANWTPAQPLAPGRTGGLGPSDRQLLLFYLEQCEANLTTLTNAVDAFFTAVATNQPPKIFVAHSKFVILSAHKLVFIGDTLSRQAKAADVRSQVTHYSNLLCDLLRGIVATTKAAALQYPSPSAAQDMVERVKELGHSTQQFRRVLGQLAAA",binding result,binds

# — patent publication US20100081638A1 (KOREA RESEARCH INSTITUTE OF BIOSCIENCE AND BIOTECHNOLOGY, published 2010)
